Data reported in patent publication US20210253725A1 (BIONTECH, published 2021).

T1: CD27 expressed on the cell surface of HT1080_CD27 cells (human, UniProt P26842 20-260)
T1 sequence (looked up): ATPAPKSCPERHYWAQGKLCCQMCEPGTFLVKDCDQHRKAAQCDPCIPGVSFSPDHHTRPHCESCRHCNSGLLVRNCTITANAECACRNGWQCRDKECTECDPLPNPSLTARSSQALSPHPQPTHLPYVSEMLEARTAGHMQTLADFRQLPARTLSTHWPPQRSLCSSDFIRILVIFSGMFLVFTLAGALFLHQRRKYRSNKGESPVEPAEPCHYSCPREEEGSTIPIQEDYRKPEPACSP

T2: CD27 protein (His-tagged, Sino Biological Inc. 10039-H08B1) (human, UniProt P26842 20-192)
T2 construct: bought protein coated on ELISA plates; also called TNFRSF7; not shown: His tag
T2 sequence (looked up): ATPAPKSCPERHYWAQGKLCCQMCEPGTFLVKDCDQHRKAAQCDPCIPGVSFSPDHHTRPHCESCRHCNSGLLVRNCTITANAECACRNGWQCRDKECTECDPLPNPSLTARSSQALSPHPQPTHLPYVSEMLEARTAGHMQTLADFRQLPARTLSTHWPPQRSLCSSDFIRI


Assays:
[1] = molecular target: T1, CD27 expressed on the cell surface of …; assay: cell-based or functional assay
[2] = molecular target: T1, CD27 expressed on the cell surface of …; assay: cell-based or functional assay; remark: listed apart in the source
[3] = molecular target: T1, CD27 expressed on the cell surface of …; assay: HT1080_CD27 cells, imaging; note: test concentration or dose not given here
[4] = molecular target: T2, CD27 protein (His-tagged, Sino …); assay: ELISA, coated His-tagged CD27; note: test concentration or dose not given here
Throughout, for Functional assay Cross-linked by F(ab′)2 fragment IL-8: test concentration or dose not given here.
Throughout, for Functional assay IL-8: test concentration or dose not given here.

Binder | EC 50 (IL-8 release, cross-linked) [1] [µg/mL] | other results
P018.S.09.A.D05 (antibody, V domains shown) VH: QSLEESGGRLVTPGGSLTLTCTVSGIDLSSYAMDWVRQAPGKGLEWIGVIGAGGSTYYASWANGRFTISKTSTTVDLKISSPTTEDTATYFCARDIGGDYSSRYYFSLWGPGTLVTVSS VL: DIVMTQTPASVEAAVGGTVTIKCQASQSTSTALAWYQQKPGQRPKLLIYDSSKLASGVPSRFSGSGSGTEFTLTISGVQSDDAASYYCQQGYNINNVAFGGGTEVVVK | 0.561 | 
P018.S.02.A.G03 (antibody, V domains shown) VH: QSVEESGGRLVTPGTPLTLTCTVSGFSLSSYVMSWVRQAPGKGLEWIGYIDYGGTAYYASWAKGRFTISKTSTTVELKITSPTIEDTATYFCARGGYGGYILVTGLWGPGTLVTVSS VL: DIVMTQTPASVSEPVGGTVTIKCQASQTIISYLSWYQQKPGQPPKLLIYGASTLASGVPSRFKGSGSVTEYTLTISDLESADAATYYCQTYYGGGPFGNGFGGGTEVVVK | 0.526 | 
P018.S.01.A.B04 (antibody, V domains shown) VH: QEQLEESGGRLVTPGGTLTLTCTASGFSLSSYDMSWVRQAPGKGLEWIGYIWSDGNTDYASWAAGRFTASRASTTVDLKMTSLTTEDTATYFCARGYTGFFLWGPGTLVTVSS VL: DVVMTQTPSSVSAAVGGTVTIKCQASQSIGSSYLSWYQQKPGQPPKLLIYKTSTLASGVPSRFKGSGSGTEFTLTISDLESDDAATYYCQCTYYGGSWRVAFGGGTEVVVK | 0.856 | 
P018.S.01.A.D04 (antibody, V domains shown) VH: QEQLEESGGRLVTPGGTLTLTCTASGFSLSNYDMSWVRQAPGKGLEWIGYIWSDGNTDYASWAAGRFTASRASTTVDLKMTSLTTEDTATYFCARGYTGFFLWGPGTLVTVSS VL: DVVMTQTPSSVSTAVGDTVTIKCQASQSIGSSYLSWYQQKPGQPPKLLIYKTSTLASGVPSRFKGSGSGTEFTLTISDLESDDAATYYCQCTYYGGSWRVAFGGGTEVVVK | 1.3 | 
P018.S.01.A.H02 (antibody, V domains shown) VH: QSVEESGGRLVTPGTPLTLTCTASGFSLSSYHMQWVRQAPGKGLEWIGIIYAGSGNTWYASWAKGRFTISKTSTTVDLKITSPTTEDTAAYFCARQPGGDASDTQLDLWGQGTLVTVSS VL: AAVLTQTASPVSAAVGGTVTINCQSSQSVFDHNQLSWFQHKPGQSPKLLIYRASTLASGVPSRFKGSGSGTQFTLTISDVQSDDAATYYCLGGYSSSSDTVFGGGTEVVVK | 1.11 | 
P018.S.07.A.C04 (antibody, V domains shown) VH: QEQLVESGGGLVQPEGSLTLTCTASGFSFSSRFWICWVRQAPGKGLEWIACIYGGSTSATYDASWAKGRFTISKTSSTTVTLQMTSLTAADTATYFCTRLPTYDAYVFNLWGPGTLVTVSS VL: AIVMTQTPSSKSVPVGATATINCQASESVFSNNYLSWYQQKPGRSPKLLIYEASKLASGVPSRFSGSGSGTQFTLTISDVVSDDAATYYCGGYKSNNVDGYAFGGGTEVVVK | 0.801 | 
P018.S.09.A.A06 (antibody, V domains shown, V regions on human Ig constant parts; also called AB27_146) VH: QEQLKESGGGLVQPGESLTLTCTASGFSLSSYYMSWVRQAPGKGLEWIGMISTGGSAYYANWARGRFTISRTSTTVDLKVTSLTTEDTATYFCARGWRYEDLWGQGTLVTVSS VL: AQVLTQTPSPVSAAVGSTVTINCQSSQTVYNNNYLAWYQQKPGQPPKLLIYDASNLASGVSSRFSGSGSGTQFTLTISDLESDDAATYYCQGTYYDNAWYHTFGGGTEVVVK | 0.387 | Functional assay Cross-linked by F(ab′)2 fragment IL-8 [2]: 2.25 abs. corr.; Functional assay IL-8 [2]: 2.19 abs. corr.; Cellular binding assay [RFU] [3]: 113 RFU; ELISA [abs. corr.] [4]: 3.09 abs. corr.
P018.S.10.A.E01 (antibody, V domains shown) VH: QEQLVESGGGLVQPEGSLTLTCTATGIDFSTNYRSCWVRQAPGKGLEWIACIDTDDSDSTYYASWAKGRFTISKTSSTTVTLQMTSLTAADTATYFCTRAYTTSDYAWSFYLWGPGTLVTVSS VL: DLVMTQTPASVEAAVGGTVTIKCQTSQSISKFLNWYQQTPGQPPKLLIYRASTLESGVPSRFEGSGSGTEFTLTISDLESADAATYYCQCTYGGTSGSVWAFGGGTEVVVK | 0.722 | 
P018.S.03.A.A02 (antibody, V domains shown) VH: QSVEESGGRLVTPGTPLTLTCTVSGFSLSSYDMTWVRQAPGEGLEWIGYINTDTTTYYASWAKGRFTISRTSTTVDLEITSPTTEDTATYFCARGNDPIYIDLWGQGTLVTVSS VL: AAVLTQTPSPVSAAVGGTVSISCQSSKSVINNNWLGWYQQKPGQPPKLLISYASTLASGVPSRFSGSGSGTQFTLTISDVQSDDAATYYCAGAYSPDSENAFGGGTEVVLK | 0.835 | 
P018.S.09.A.E05 (antibody, V domains shown) VH: QSLEESGGRLVTPGTPLTLTCTVSGIDLSRYDMSWVRQAPGKGLEWIGFIGASGSTYYASWVKGRFTISKTSTTVDLKITSPTTEDTATYFCAREETDSRGYYYSLWGPGTPVTVSS VL: ALVMTQTPASVEAAVGGTVTINCQASQSISDLLGWYQQKPGQPPKLLIYDASDLASGVPSRFSGSGSGTEFTLTISGVQSDDAATYYCQQGYSINNVDNAFGGGTEVVVK | 0.502 | 
P018.S.08.A.G02 (antibody, V domains shown) VH: QSVEESGGRLVTPGTPLTLTCTVSGFSLSTYAMSWVRQAPGKGLEWIGMNTRSGIIYYASWAKGRFTISKTSTTVHLKITSPTTEDTATYFCARDLYADVSGYYLGLWGPGTLVTVSS VL: AQVLTQTPSSVSAAVGGTVTINCQASQSLYNNKNLAWYQQKPGQPPKLLIYYASTLASGVSSRFKGSGSGTQFTLTISDLESDDAATYYCQGEFICSSADCVVFGGGTAVVVK | 1.94 | 
P018.S.06.A.A02 (antibody, V domains shown) VH: QEQLVESGGGLVQPEGSLTLTCTSSGFSLNSNYYISWVRQAPGKGLEWIACIDAGSGSTWYASWVKGRFTISKTSSTTVTLQMTSLTAADTATYFCARDDIGTSYEYYFGLWGPGTLVTVSS VL: DVVLTQTPASVSEPVGGTVTIKCQASQTISSYLAWYQQKSGQPPKLLIYSASTLASGVSSRFKGSGSGTEYTLTISDLESADAATYYCQTYYGSDSYVFGGGTEVVVK | 0.575 | 
P018.S.09.A.C03 (antibody, V domains shown) VH: QSVEESGGRLVTPGTPLTLTCTVSGFSLSSYGMIWVRQAPGKGLEWIGWISSNDNKYYARWAKGRFTISKTSTTVDLKMTSLTTEDTATYFCVRNGVYNTGNYFDLWGQGTLVTVSS VL: AQVLTQTPSSVSAAVGGTVTINCQASQSLYNNKNLAWYQQKPGQPPKFLIYTASSLASGVSSRFKGSGSGTQFTLTISDVQSDDAATYYCQGEFDCDSDDCFAFGGGTEVVVK | 1.02 | 
P018.S.01.A.H06 (antibody, V domains shown) VH: QEQLKESGGRLVKPDETLTITCTASGFSLSRYDMSWVRQAPGKGLEWIGSIWSDGDTDYANWAKGRFTISKTSTTVDLKITSPTTEDTATYFCARGYTAWSLWGPGTLVTVSS VL: ALVMTQTPSPVSAAVGGTVTISCQSSESVVGNNALSWFQQKPGQPPKLLNYQASTLASGVSSRFSGSGSGTQFTLTISGVQSDDAATYYCQGTYYSSGWYFAFGGGTEVVVK | 2.35 | 
P018.S.04.A.F04 (antibody, V domains shown) VH: QSVEESGGRLVTPGTPLTLTCTVSGFSLSNYAMSWVRQAPGKGLEWIGIIYASGTTYYARWAKGRFTISRTSTTVDLKISSPTTEDTATYFCAREYDSYDYAYGSSIYAFDPWGPGTLVTVSS VL: AYDMTQTPSSVSAAVGGTVTIKCQASESIYSNLAWYQQKPGQRPKLLIYRASTLASGVSSRFKGSGSGTQFTLSISGVESADAATYYCQQGYSSSNVDNVFGGGTEVVVK | 1.44 | 
P018.S.09.A.A02 (antibody, V domains shown, V regions on human Ig constant parts; also called AB27_143) VH: QSVEESGGRLVTPGTPLTLTCTASGFSLSNFYMSWVRQAPGKGLEWIGIISTGGSAYYASWAKGRFTSSKTSTTVDLQITSPTTEDTATYFCARGSGTDGAWLYYGIDLWGPGTLVTVSS VL: DVVMTQTPASVEAAVGGTVTIKCQASENIGHALAWYQQKPGQPPKLLIYRTSTLASGVPSRFSGSGSGTQFSLTISDLDSADAATYFCQINYGGGSGGYFAFGGGTEVVVK | 0.144 | Functional assay Cross-linked by F(ab′)2 fragment IL-8 [2]: 2.46 abs. corr.; Functional assay IL-8 [2]: 0.839 abs. corr.; Cellular binding assay [RFU] [3]: 155 RFU; ELISA [abs. corr.] [4]: 2.95 abs. corr.
P018.S.01.A.F05 (antibody, V domains shown) VH: QEQLEESGGDLVKPEGSLTLTCTASGFSFSSSYWICWVRQAPGKGLEWIGCIITGRGNTYYANWAKGRFTISKTSSTTVTLQMTSLTAADTAIYSCARGPGGADPVNLWGPGTLVTVSS VL: DVVMTQTPASVSEPVGGTVTIKCQASQSIYSNLAWYQQKPGQPPKLLIYRASTLTSGVPSRFKGSGSGTQFTLTISDLESADAATYYCQCTYDGSSYVPNAFGGGTEVVVK | 1.32 | 
